The data set can be described thus: yeast display, Sf9 membrane polyspecificity reagent, FACS + sequencing; frameworks hold sequencing errors. In a few lines: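 Synthetic nanobody libraries on Saccharomyces cerevisiae BJ5465 were galactose-induced for 36–48 hours, stained 1 hour at 4 °C with 10% biotinylated, detergent-solubilized Sf9 membrane reagent and enriched on streptavidin microbeads. FACS then separated cells into low and high (top ~1%) gates by anti-HA (expression) and streptavidin (reagent binding) fluorescence. Genes were colony-PCR amplified, MiSeq 2 × 250 sequenced and CDR-length filtered. A clone's polyreactivity label is that of its gate of origin.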
As for “QVQLVESGGGLVQAGGSLRLSCAASGSTFVPYTMGWYRQAPGKERELVAAISSGDSTYYADSVKGRFTISRDNAKNTVYLQMNSLKPEDTAVYYCAADYQWFWVWYGYWGQGTQVTVSS”, the “polyreactivity (PSR sort gate)” value is on record as “high polyreactivity”.
With “QVQLVESGGGLVQAGGSLRLSCAASGSTFVPYTMGWYRQAPGKERELVAAMSGSGGTDYADSVKGRFTISRDNAKNTVYLQMNSLKPEDTAVYYCATDGLDFWFIYDYWGQGTQVTVSS” the entry was “low polyreactivity”.
For “QVQLVESGGGLVQAGGSLRLSCAASGSTFVQNTMGWYRQAPGKERELVAAITRGGSTSYADSVKGRFTISRDNAKNTVYLQMNSLKPEDTAVYYCNAKSRSPTYRYRSWPYNYWGQGTQVTVSS”, the “polyreactivity (PSR sort gate)” value is “high polyreactivity”.
With “QVQLVESGGGLVQAGGSLRLSCAASGSTFVQYAMGWYRQAPGKERELVAAITRSGGSTYYADSVKGRFTISRDNAKNTVYLQMNSLKPEDTAVYYCAADFSSSYRAFNYWGQGTQLTVSS” the entry was “high polyreactivity”.
Consider “QVQLVESGGGLVQAGGSLRLSCAASGSTFVRNAMGWYRQAPGKERELVAAITSSGGSTYYADSVKGRFTISRDNAKNTVYLQMNSLKPEDTAVYYCNAELGSDTANYDYWGQGTQVTVSS”, for which the “polyreactivity (PSR sort gate)” value is recorded as “low polyreactivity”.
The result for “QVQLVESGGGLVQAGGSLRLSCAASGSTFVRNAMGWYRQAPGKERELVAGISTGDNTYYADSVKWRFTISRDNAKNTVYLQMISLKPEDTAVYYCNATKEFSFGLDYWGQGTQVTVSS” reads “low polyreactivity”; that for “QVQLVESGGGLVQAGGSLRLSCAASGSTFVRNAMGWYRQAPWKERELVAAIRWRSGSTYYADSVKGRFTISRDNAKNTVYLQMNSLKPEDPAVYYCAVDYNSFRYGPLGYWGQGTQVTVSS”, “high polyreactivity”.
The result for “QVQLVESGGGLVQAGGSLRLSCAASGSTFVRNAMGWYRQATGKERELVAAITTSGARTYYADSVKGRFTISRDNAKNTVYLQMNSLKPEDTAVYYCAAEYKGRTYRFDYWGQGTQVTVSS” reads “low polyreactivity”; that for “QVQLVESGGGLVQAGGSLRLSCAASGSTFVRNDMGLYRQAPGKERELVAAITRGGRTYYADSVKGRFTISRDNAKNTVYLQMNSLKPEDTAVYYCAAEGTGYSVGWQYGYWVQGTQVTVSS”, “low polyreactivity”.
With “QVQLVESGGGLVQAGGSLRLSCAASGSTFVRNGMGWYRQSPGKVRELVASISGRGGSTYYADSVKGRFTISRDNAKNTVYLQMNSLKPEDTAVYYCAARKQRGGGPTFDYWGQGTQVTVSS” the entry was “high polyreactivity”.
For “QVQLVESGGGLVQAGGSLRLSCAASGSTFVRNVMGWYRQAPGKERELDAAITRSGDTTYYADSVKGRFTISRDNAKNTVYLQMNSLKPEDTAVYYCAKRTFVRRGSIYPIDDYWGQGTQVTVSS”, the “polyreactivity (PSR sort gate)” value is given as “low polyreactivity”.
With “QVQLVESGGGLVQAGGSLRLSCAASGSTFVRNVMGWYRQAPGKERELVAAITRSGDTTYYADSVKGRFTISRDNAKNTVYLQMNSLKPEDTAVYYCAKRTFVRRGSIYPIDDYWGQGTQVTVSS” the entry was “low polyreactivity”; with “QVQLVESGGGLVQAGGSLRLSCAASGSTFVRYAMGWYRQAPGKERELVAAIRGGGGTYYADSVKGRFTISRDNAKNTVYLQMNSLKPEDTAVYYCAADTYYYYWFAGYTEYDYWGQGTQVTVSS”, “low polyreactivity”; with “QVQLVESGGGLVQAGGSLRLSCAASGSTFVRYAMGWYRQAPGKERELVAAISGGGSTSYADSVKGRFTISRDNAKNTVYLQMNSLKPEDTAVYFCAKAGYRSEFEYWGQGTQVTLSS”, “low polyreactivity”.
The result for “QVQLVESGGGLVQAGGSLRLSCAASGSTFVRYAMGWYRQAPGKERELVAAISRRGSSTYYADSVKGRFTISRDNAKNTVYLQMNSRKPEDTADYYCAVDYSPGFDDYDYWGQGTHVTVSS” reads “high polyreactivity”.
As to “QVQLVESGGGLVQAGGSLRLSCAASGSTFVRYAMGWYRQAPGKERELVASISSSGSTYYADSVKGRFTISRDNAKNTVYLQMNSLKPEDTAVYYCAKQYGGRYGYWGQGTQVTVSS”, the “polyreactivity (PSR sort gate)” value is reported as “low polyreactivity”.
Consider “QVQLVESGGGLVQAGGSLRLSCAASGSTFVRYVMGWYRQAPGKERELVAAISEGGGSTYYADSVKGRFTISRDNAKNTVYLQMNSLKPEDTAVYYCAAGRSNSYSPRRRVTYGYNYWGQGTQVTVSS”, for which the “polyreactivity (PSR sort gate)” value is “high polyreactivity”.
With “QVQLVESGGGLVQAGGSLRLSCAASGSTFVRYVMGWYRQAPGKERELVAAISRRGGSTYYADSVKGRFTISRDNAKNTVYLQMNSLKPEDTAVYYCAARGTSRKYYYWGQGTQVTVSS” the entry was “high polyreactivity”.
As to “QVQLVESGGGLVQAGGSLRLSCAASGSTFVSNAMGWDRQAPGQEREVVAALSSGGSPYYADSVKGRFTISRDNAKNTVYLQMNRLKPEDTAVYYCNKRRGRKWPGNYSVVKLLMGYWGQGTQVTVSS”, the “polyreactivity (PSR sort gate)” value was “low polyreactivity”.
“QVQLVESGGGLVQAGGSLRLSCAASGSTFVSNAMGWYRQAPGKERELVAAISSSGGRTSYADSVKGRFTISRDNAKNTVYLQMNSLKPEDTAVYYCAARFKSVDYVQYYYWGQGTQVTVSS”: the “polyreactivity (PSR sort gate)” value is given as “low polyreactivity”.
On to “QVQLVESGGGLVQAGGSLRLSCAASGSTFVSNAMGWYRQAPGKERELVAAISTSGGSTYYADSVKGRFTISRDNAKKTVYLQMNSLKTEDTAVYFCAAVSPRRYRYDYWGQGTQVTVSS”, for which the “polyreactivity (PSR sort gate)” value is on record as “low polyreactivity”.
Turning to “QVQLVESGGGLVQAGGSLRLSCAASGSTFVSNAMGWYRQAPGKERELVAAITTGGSTYYADSVKGRFTISRDNAKNTVYLQMNSLKPEDTAVYYCAADSVLNWFWGYEYWGQGTQVTVSS”, the “polyreactivity (PSR sort gate)” value was “low polyreactivity”.
With “QVQLVESGGGLVQAGGSLRLSCAASGSTFVSYALGWYRQAPGKERDLVAAISRSGGSTYYADSVKGRFTISRDNAKNTVYVQMNRLKPEDTAVFYCAADCRGPSKRNRDYWGQGTEVTVSS” the entry was “high polyreactivity”; with “QVQLVESGGGLVQAGGSLRLSCAASGSTFVSYAMGGSRQAPGKERELVAAISRSGGSTYYADSVKGRFTISRDTAKNTVYLQMNSLKPEDTAGYYCAADGRGPSKRNRDYWGQGTQVTVSS”, “high polyreactivity”; with “QVQLVESGGGLVQAGGSLRLSCAASGSTFVSYAMGWYRQAPGKERELVAVISYRGGGTYYADSVKGRFTISRDNAKNTVYLQMNSLKPEDTAVYYCNAELWVLVSSYSYHYDGFDYWGQGTQVTVSS”, “low polyreactivity”.
Consider “QVQLVESGGGLVQAGGSLRLSCAASGSTFVSYTMGWYRQAPGKERELVAAISYNGARTYYADSVKGRFTISRDNAKNTVYLQMISLKPEDTAVYDCARRYYSQYDYWGQGTQVTVSS”, for which the “polyreactivity (PSR sort gate)” value is “high polyreactivity”.
For the sequence “QVQLVESGGGLVQAGGSLRLSCAASGSTFVVNAMGWYSLAPGKERELVAAITQDGDGTYYADSVKGRFTISRDNAKNTVYLQMNSLKPEDTAVYYCAAYPFSGPYDEFDYWRQGTQVTVSS”, the “polyreactivity (PSR sort gate)” value is “low polyreactivity”.
With “QVQLVESGGGLVQAGGSLRLSCAASGSTFVVNDMGWYRQAPGKDRELVASITAGGSTYYADSVKGRFTISRDNAKNTVNLQMNSLKPEDTAVYYCAKVQDRAYLPHQRGRERDYDYWGQGTQVTVSS” the entry was “low polyreactivity”.
With “QVQLVESGGGLVQAGGSLRLSCAASGSTFVVYAMGWYRQAPGKERELVARITLSDGSTNYADSVKGRFTISRDNAKNTVYLQMNSLKPEDTAVYYCAAEVVPFYYFWFDYWGQGTQVTVSS” the entry was “low polyreactivity”; with “QVQLVESGGGLVQAGGSLRLSCAASGSTFVWYAMGWYRQAPGKERELVASITSGGNTNYADSVKGRFTISRDNAKNTVYLQMNSLKPEDSAVYYCNAVRSQRSLSSRYYYWGQGTQVTVSS”, “low polyreactivity”.
The result for “QVQLVESGGGLVQAGGSLRLSCAASGSTFVYNAMGWYRQAPGKERELVAAITVSDGSTYYADSVKGRFTISRDNAKNTVYLQMNSLKPEDTAVYYCNADFPRKTRYEYWGQGTQVTVSS” reads “low polyreactivity”; that for “QVQLVESGGGLVQAGGSLRLSCAASGSTFVYNVMGWYRQAPGKERELVAAIRWRGGSTYADSVKGRFTISRDNAKNSVYLQMTSLKPQDTAVYYSNTGHEEDEYDYWGQGTQVTVSS”, “low polyreactivity”; that for “QVQLVESGGGLVQAGGSLRLSCAASGSTFVYYAMGWYRQAPGKERALVASITTSAGSTYYADSVKGRFTISRDTAKNSVYLQMNSLKPEDTAVYYCNARITITYYYWGQGTQVTVSS”, “high polyreactivity”.
For “QVQLVESGGGLVQAGGSLRLSCAASGSTFVYYAMGWYRQAPGKERELVADISWSGGDTYYADSVKGRFTISRDNAKNTVYLQMNSLKPVDTAVYYCAAEWSTPSYVGFADGFEYWGQGTQVTVSS”, the “polyreactivity (PSR sort gate)” value is “low polyreactivity”.
The result for “QVQLVESGGGLVQAGGSLRLSCAASGSTFVYYAMGWYRQAPGKERELVARISSGGSTYYADSVKGRFTISRDNAKNTVYLQMNSLKPEDTAVYYCAVLLWVSPLKREFYWGQGTQVTVSS” reads “high polyreactivity”; that for “QVQLVESGGGLVQAGGSLRLSCAASGSTFVYYAMGWYRQAPGKERELVATINYNGGSTSYADSVKGRFTISRDNAKNTVYLQMNSLKPEDTAVYYCAKDRYYTWGDYWGQGTQVTVSS”, “low polyreactivity”; that for “QVQLVESGGGLVQAGGSLRLSCAASGSTFVYYAMGWYRQAPGKERELVATITSGGSTKYADSVKGRFTISRDNAKNTVYLQMNSLKPEDTAVYYCAAAYRVRGRTYDSWGQGTQVTVSS”, “high polyreactivity”.
The result for “QVQLVESGGGLVQAGGSLRLSCAASGSTFVYYAMGWYRQAPGKERELVAVITWSGGRTYYADSVKGRFTISRDNAKNTVYVLMNSLKPEDTAVYYCAARYPGYQYGLDYWGEGTQVTVSS” reads “high polyreactivity”; that for “QVQLVESGGGLVQAGGSLRLSCAASGSTFVYYTMGWYRQAPGKERELVATITYGGGSTYYADSVKGRFTISRDNAKNTVYLQMNSLKPEVTAVYYCAARPSWVRKMYYWGQGTQVTVSS”, “high polyreactivity”; that for “QVQLVESGGGLVQAGGSLRLSCAASGSTFWAYAMGWYRQAPGKERELVAAITTGGGRTFYADSVKGRFTISRDNAKNTVYLQMNSLKPEDTAVYYCAAVSQSYRMYYWGQGTQVTVSS”, “low polyreactivity”.
The result for “QVQLVESGGGLVQAGGSLRLSCAASGSTFWFYAMGWYRQAHGKERELVAVISNSGSTYYADSVKGRFTISRDNAKNTVYLQMNSLKPEDTAVYYCNKDGGGDSYWYDYWGQGTQVTVSS” reads “low polyreactivity”.

For the origin of these results see the nanobody polyreactivity screen of Harvey et al. (2022).
